Experimental data: the supplement of paper PMC9732359
± gives the uncertainty stated by the source.

Experiment: protein stability index of a GFP-peptide fusion (yeast GPS) (PSI 1-4); higher = more stable; sorted into four equal gates, so the index is relative within each strain
How it was run: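 Tiled 17-residue peptides from yeast proteins were fused downstream of GFP on a plasmid that also expresses Cherry, and the pooled library was carried in yeast. Mid-log cultures grown in leucine-free medium were sorted into four equal gates by GFP/Cherry fluorescence ratio. Plasmids from each gate were PCR-amplified and Illumina-sequenced, and reads were assigned to strains by barcodes. Each peptide's protein stability index is the sum, over gates, of the gate's read frequency multiplied by its gate number.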

| Sequence | protein stability index (doa10∆) | protein stability index (pdr5∆) | protein stability index (san1∆) | protein stability index (ubr1∆) |
| --- | --- | --- | --- | --- |
| PLVIRRYLPDGSFEDWS [RPO26] | 3.43 ± 0.18 | 3.27 ± 0.18 | 3.44 ± 0.068 | – |
| DYYYEDAGSNQYYVTQH [SWI1] | 3.15 ± 0.1 | 3.34 ± 0.082 | 3.09 ± 0.14 | 3.22 ± 0.095 |
| KYACLAIRKNGQIDFWY [SIN4] | 1.98 ± 0.067 | 2.16 ± 0.077 | 2.08 ± 0.071 | 2.39 ± 0.045 |
| YMQRTVEEAHDFNMKLA [RPB2] | 3.09 ± 0.098 | 3.04 ± 0.1 | 3.02 ± 0.075 | 2.99 ± 0.062 |
| AQLDGRIGVLQARMMQQ [NSL1] | 2.21 ± 0.055 | 2.46 ± 0.043 | 2.46 ± 0.056 | 2.61 ± 0.048 |
| SLEALIDLCHDFPHLTP [YCS4] | 2.31 ± 0.042 | 2.35 ± 0.036 | 2.56 ± 0.049 | 2.25 ± 0.031 |
| KDILNLASEVGDPALVY [ECM29] | 2.87 ± 0.09 | 3.15 ± 0.12 | 3.39 ± 0.066 | 2.87 ± 0.076 |
| AGKQLEDGRTLSDYNIQ [RPS31] | 2.81 ± 0.11 | 2.94 ± 0.16 | 3.6 ± 0.094 | 3.15 ± 0.1 |
| TSVDGKKRSKVRKETYS [HTB2] | 3.04 ± 0.087 | 3.19 ± 0.14 | 3.15 ± 0.18 | 3.31 ± 0.067 |
| EKTMMTFGKPEEEDSIL [YCS4] | 3.27 ± 0.15 | 3.37 ± 0.14 | 3.35 ± 0.063 | 3.27 ± 0.088 |
| MRRFILGTTEGDIKVLD [RPN14] | – | – | – | 1.25 ± 0.18 |
| LNEMLNTRKNMSISLES [DIS3] | 2.66 ± 0.053 | 2.91 ± 0.066 | 2.63 ± 0.069 | 2.95 ± 0.051 |
| KSNTIPVTSIPSTNKKL [GAL11] | 2.67 ± 0.076 | 2.87 ± 0.073 | 2.9 ± 0.044 | 2.96 ± 0.057 |
| NAKDKERLQLLEDVVGA [SMC3] | 3.32 ± 0.19 | 3.38 ± 0.13 | 3.01 ± 0.071 | 3.21 ± 0.11 |
| VFQLPTRLPAFERPAVK [RPC53] | 3.01 ± 0.093 | 2.89 ± 0.072 | 2.81 ± 0.1 | 3.01 ± 0.079 |
| QKGITSYAVSPYAQKPL [QCR8] | 2.92 ± 0.13 | 3.05 ± 0.14 | 2.92 ± 0.063 | 3.13 ± 0.089 |
| ASSSPSSTDFSTCIVSL [ECM29] | 2.81 ± 0.081 | 2.26 ± 0.07 | 2.01 ± 0.1 | 1.84 ± 0.059 |
| LKSKVIDSPELLSLIST [RPN7] | 2.48 ± 0.038 | 2.63 ± 0.045 | 2.4 ± 0.049 | 2.61 ± 0.041 |
| PENTAMFNPLHESYCLP [YMR129W/POM152] | 2.44 ± 0.043 | 2.66 ± 0.042 | 2.66 ± 0.037 | 2.6 ± 0.03 |
| YQLNDRNVTKGDIVRML [SMC3] | 2.72 ± 0.24 | 3.03 ± 0.17 | 2.84 ± 0.14 | 3.02 ± 0.11 |
| EALQYDPQPFLKHVLQL [SNU114] | 2.17 ± 0.04 | 2.53 ± 0.047 | 2.35 ± 0.075 | 2.65 ± 0.038 |
| TEAVTQLIGSNIELHSL [PUP1] | 3.29 ± 0.2 | 3.23 ± 0.12 | 3.44 ± 0.11 | 2.96 ± 0.13 |
| INDAGKAKKLIQSLPPT [RPL38] | 2.17 ± 0.047 | 2.38 ± 0.042 | 1.96 ± 0.059 | 2.56 ± 0.03 |
| NVYVLPKNLLKKFIEIS [PRP8] | 1.93 ± 0.048 | 2.16 ± 0.045 | 2.06 ± 0.084 | 1.79 ± 0.048 |
| EEGETSRPLKKVKILEQ [SWI3] | 3.01 ± 0.11 | 3.28 ± 0.092 | 2.86 ± 0.08 | 3.03 ± 0.053 |
| KTDEVIILGTNLYDGAE [BRR2] | 2.98 ± 0.068 | 3.12 ± 0.055 | 3.06 ± 0.042 | 2.9 ± 0.043 |
| AKGLVAYHQKYVDEQSK [RPS16A] | 2.03 ± 0.085 | 2.12 ± 0.056 | 2.52 ± 0.089 | 1.11 ± 0.034 |

| Sequence | protein stability index (doa10∆) | protein stability index (pdr5∆) | protein stability index (san1∆) | protein stability index (ubr1∆) |
| --- | --- | --- | --- | --- |
| EDYPMSSEIKIYYNELQ [SIR4] | 1.95 ± 0.13 | 3.16 ± 0.13 | 2.53 ± 0.25 | 3.02 ± 0.079 |
| VSMYQNSSTSSTSNTPS [YDL088C/ASM4] | 2.59 ± 0.064 | 2.6 ± 0.064 | 2.58 ± 0.074 | 2.69 ± 0.046 |
| LLIHRKGLTYLHLDYNF [PRP8] | 1.77 ± 0.043 | 1.28 ± 0.034 | 1.32 ± 0.079 | 1.56 ± 0.048 |
| GGQGNTDDYFEELRDLY [FAS1] | 3.22 ± 0.088 | 3.51 ± 0.073 | 3.3 ± 0.057 | 3.28 ± 0.059 |
| ETKSWINESAENFSNGI [MED1] | 3.04 ± 0.062 | 2.72 ± 0.047 | 2.74 ± 0.056 | 2.77 ± 0.042 |
| IMERIKSSLSLRDHALS [ITC1] | 2.24 ± 0.12 | 2.53 ± 0.053 | 2.7 ± 0.18 | 2.65 ± 0.06 |
| DQFHRDTISAITHQLNN [RPC25] | 1.54 ± 0.049 | 2.12 ± 0.057 | 1.84 ± 0.076 | 1.67 ± 0.034 |
| KMIEKIEKMSTIVQLCK [YIL149C/MLP2] | 2.65 ± 0.092 | 2.37 ± 0.067 | 1.98 ± 0.17 | 2.36 ± 0.098 |
| QVLNRYTYSSTLSHLRR [RPB2] | 2.88 ± 0.043 | 2.83 ± 0.041 | 2.77 ± 0.041 | 2.81 ± 0.03 |
| TKKLIQKTVFDELCKLV [SRP54] | 1.1 ± 0.11 | 1.51 ± 0.096 | 1.25 ± 0.18 | 1.11 ± 0.095 |
| LFKYQGHIGAYLIVAGV [PUP1] | 1.66 ± 0.067 | 2.04 ± 0.06 | 1.39 ± 0.12 | 2.53 ± 0.055 |
| WGIPLIKELRSKGYPIQ [FAS1] | 2.38 ± 0.16 | 2.75 ± 0.091 | 1.69 ± 0.2 | 1.85 ± 0.071 |
| LIQSYSLLDKPDEAIEK [FAS1] | 2.82 ± 0.087 | 2.75 ± 0.084 | 2.14 ± 0.087 | 2.79 ± 0.082 |
| HIRRMVPLAMGIVSVSD [RPN1] | 1.32 ± 0.039 | 1.61 ± 0.052 | 1.55 ± 0.083 | 1.57 ± 0.044 |
| EAVEIPVNSADGKEDVE [SME1] | 2.29 ± 0.061 | 2.8 ± 0.056 | 2.77 ± 0.04 | 2.67 ± 0.04 |
| SSAHLIRINDEPILGQI [YML103C/NUP188] | 2.59 ± 0.084 | 2.9 ± 0.077 | 2 ± 0.14 | 2.45 ± 0.069 |
| DSFTMPNISHSNIDYQT [SNF2] | 2.4 ± 0.088 | 2.12 ± 0.1 | 2.49 ± 0.13 | 2.41 ± 0.072 |
| RISGLIYEEVRAVLKSF [HHF1] | 3.33 ± 0.14 | 3.13 ± 0.2 | 3.16 ± 0.11 | – |
| LRSNKCILYDADESKMA [RET1] | – | 3.07 ± 0.18 | – | – |
| PSKLVITKLHLDKDRKA [RPL26A] | 1.73 ± 0.18 | 1.75 ± 0.086 | 1.75 ± 0.28 | 1.21 ± 0.099 |
| FIKEIHKSIELISNLLF [YCS4] | 1.89 ± 0.047 | 2.16 ± 0.051 | 2.48 ± 0.052 | 2.46 ± 0.034 |
| FRSLFFRSYMDQEKKYG [RPB2] | 1.7 ± 0.051 | 2.14 ± 0.07 | 2.61 ± 0.078 | 2.57 ± 0.038 |
| PEMIKRSLLLSRVRADD [RRP43] | 2.87 ± 0.2 | 3.63 ± 0.17 | – | 2.92 ± 0.16 |
| GRGGSGWKPYYKLFIWL [YML031W/NDC1] | 1.5 ± 0.055 | 1.78 ± 0.052 | 1.41 ± 0.089 | 1.31 ± 0.049 |
| DDSRNPDCKIKIAHGTT [PRE2] | 2.63 ± 0.086 | 2.77 ± 0.067 | 2.72 ± 0.076 | 2.84 ± 0.078 |
| VRILRLITTNSVEEVIL [SNF2] | 2.3 ± 0.093 | 2.12 ± 0.06 | 2.31 ± 0.081 | 1.68 ± 0.033 |
| LSSDDLLGKESFKKIIK [YCS4] | 3.25 ± 0.19 | 3.08 ± 0.22 | 3.39 ± 0.063 | 3.57 ± 0.1 |
